Among the data in patent US20240239894A1 (AstraZeneca / MedImmune, published 2024) are binding result, EC50 and Max values, retold here.

The target in one test is T1, huHHLA2 (human, UniProt Q9UM44 23-344).
T1 construct: Sourced antigen; construct not described; also called Human HHLA2
T1 sequence (looked up): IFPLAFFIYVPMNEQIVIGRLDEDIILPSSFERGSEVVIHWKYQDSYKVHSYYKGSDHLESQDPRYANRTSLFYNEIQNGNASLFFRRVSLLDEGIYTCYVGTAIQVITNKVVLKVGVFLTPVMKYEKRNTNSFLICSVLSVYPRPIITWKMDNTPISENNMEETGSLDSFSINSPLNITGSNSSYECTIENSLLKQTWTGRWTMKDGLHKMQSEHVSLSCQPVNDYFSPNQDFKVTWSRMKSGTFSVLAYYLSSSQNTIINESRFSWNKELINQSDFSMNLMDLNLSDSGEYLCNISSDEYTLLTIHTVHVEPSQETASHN
Kind of test: ELISA, absorbance 450 nm, antigen human HHLA2 GST.

Test [1] addresses T2, Murine B7-H4-Fc (Mouse B7H4 ECD, Fc_6His) (mouse, UniProt Q7TSP5 25-257).
T2 construct: extracellular domain; also called mouse B7-H4-Fc; FcHis6 tagged murine B7-H4
T2 sequence (Q7TSP5 whole entry, looked up): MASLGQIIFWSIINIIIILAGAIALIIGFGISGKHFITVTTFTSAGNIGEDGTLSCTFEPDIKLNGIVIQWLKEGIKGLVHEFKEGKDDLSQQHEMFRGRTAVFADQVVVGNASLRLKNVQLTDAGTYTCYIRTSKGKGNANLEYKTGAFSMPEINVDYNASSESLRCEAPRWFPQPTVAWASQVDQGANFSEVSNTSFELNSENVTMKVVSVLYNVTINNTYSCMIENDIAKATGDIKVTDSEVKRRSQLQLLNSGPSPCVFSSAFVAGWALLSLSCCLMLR
Kind of test: HTRF binding, murine IgG1. On the technique in general: TR-FRET usually uses a lanthanide donor and a delayed reading to cut background.

A further test has as its target T3, huBTN2A1 (human, UniProt Q7KYR7 29-248, limits assumed).
T3 construct: Sourced antigen; construct not described; also called Human BTN2A1
T3 sequence (looked up): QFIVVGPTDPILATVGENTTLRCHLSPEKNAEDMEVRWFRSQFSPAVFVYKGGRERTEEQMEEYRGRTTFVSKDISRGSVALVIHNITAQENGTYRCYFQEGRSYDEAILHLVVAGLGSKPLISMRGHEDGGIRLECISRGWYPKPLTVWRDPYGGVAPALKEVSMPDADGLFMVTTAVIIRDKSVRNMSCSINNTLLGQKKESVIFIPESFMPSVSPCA
The experiment in a line: ELISA. In general terms: In an ELISA, binding on a coated surface is turned into a signal by an enzyme label.

A further test has as its target T4, huBTNL3 (human, UniProt Q6UXE8 18-237, limits assumed).
T4 construct: Sourced antigen; construct not described; also called Human BTNL3
T4 sequence (looked up): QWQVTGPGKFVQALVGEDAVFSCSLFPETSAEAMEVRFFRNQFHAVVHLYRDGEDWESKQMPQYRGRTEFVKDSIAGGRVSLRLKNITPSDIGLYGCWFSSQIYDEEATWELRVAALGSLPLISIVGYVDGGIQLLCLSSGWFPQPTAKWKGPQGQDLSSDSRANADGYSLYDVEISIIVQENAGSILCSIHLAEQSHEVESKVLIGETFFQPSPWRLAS
The experiment in a line: ELISA.

The target of another test is T5, huBTN1A1 (human, UniProt Q13410 27-242, limits assumed).
T5 construct: Sourced antigen; construct not described; also called Human BTN1A1
T5 sequence (looked up): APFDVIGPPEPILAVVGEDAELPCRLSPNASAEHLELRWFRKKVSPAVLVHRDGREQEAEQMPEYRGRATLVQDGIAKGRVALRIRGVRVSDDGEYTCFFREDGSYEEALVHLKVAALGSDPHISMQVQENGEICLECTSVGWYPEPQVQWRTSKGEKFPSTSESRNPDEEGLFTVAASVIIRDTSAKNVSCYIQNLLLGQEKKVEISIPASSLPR
Kind of test: ELISA, absorbance 450 nm, antigen human BTN1A1 GST.

The target in test [2] is T6, Human B7-H4-Fc (Human B7H4 ECD, Fc_6His) (human).
T6 construct: also called FcHis6 tagged human B7-H4
T6 sequence (Q7Z7D3 whole entry, looked up): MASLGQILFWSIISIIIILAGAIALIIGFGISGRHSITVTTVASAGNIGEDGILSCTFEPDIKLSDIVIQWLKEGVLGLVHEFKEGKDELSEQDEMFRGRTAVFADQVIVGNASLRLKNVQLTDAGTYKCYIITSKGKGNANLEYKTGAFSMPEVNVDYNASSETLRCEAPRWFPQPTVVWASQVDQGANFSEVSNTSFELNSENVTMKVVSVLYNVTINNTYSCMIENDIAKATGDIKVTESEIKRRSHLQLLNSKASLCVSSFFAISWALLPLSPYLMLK
Kind of test: HTRF binding, murine IgG1.

A further test has as its target T7, huB7-H1 (human, UniProt Q9NZQ7 19-238).
T7 construct: Sourced antigen; construct not described; also called Human B7-H1
The experiment in a line: ELISA, absorbance 450 nm, antigen human B7-H1(ECD) F10H.

In another test the target is T8, huBTN3A2 (human, UniProt P78410 30-248, limits assumed).
T8 construct: Sourced antigen; construct not described; also called Human BTN3A2
T8 sequence (P78410 30-248 limits assumed): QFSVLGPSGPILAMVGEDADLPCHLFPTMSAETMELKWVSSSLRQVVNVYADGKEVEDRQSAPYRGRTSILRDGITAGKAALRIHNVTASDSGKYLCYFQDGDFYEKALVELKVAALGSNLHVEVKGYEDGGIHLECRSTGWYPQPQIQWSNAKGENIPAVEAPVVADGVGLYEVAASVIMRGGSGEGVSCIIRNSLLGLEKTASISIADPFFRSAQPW
Kind of test: ELISA, absorbance 450 nm, antigen human BTN3A2 GST.

In another test the target is T9, huB7-H3 (human, UniProt Q5ZPR3 29-461, limits assumed).
T9 construct: Sourced antigen; construct not described; also called Human B7-H3
T9 sequence (looked up): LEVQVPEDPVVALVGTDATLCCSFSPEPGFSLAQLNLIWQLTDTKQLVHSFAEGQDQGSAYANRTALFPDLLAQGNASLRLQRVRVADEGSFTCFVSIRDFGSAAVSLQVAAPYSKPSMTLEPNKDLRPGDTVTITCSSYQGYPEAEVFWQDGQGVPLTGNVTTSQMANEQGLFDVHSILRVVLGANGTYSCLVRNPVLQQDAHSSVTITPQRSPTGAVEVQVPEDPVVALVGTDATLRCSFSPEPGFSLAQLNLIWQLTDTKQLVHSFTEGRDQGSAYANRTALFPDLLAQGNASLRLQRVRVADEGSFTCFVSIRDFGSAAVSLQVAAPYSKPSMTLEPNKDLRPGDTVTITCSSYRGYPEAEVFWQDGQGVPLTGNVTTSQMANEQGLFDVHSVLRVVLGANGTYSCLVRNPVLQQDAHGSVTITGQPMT
Kind of test: ELISA, absorbance 450 nm, antigen human B7-H3 (ECD) Fc.

Test [3] concerns the target T10, Cyno B7-H4-Fc (Cyno B7H4 ECD, FcTM_6His) (cynomolgus monkey).
T10 construct: extracellular domain; also called cynomolgus B7-H4-Fc
The experiment in a line: HTRF binding, murine IgG1.

The next test deals with T11, huB7-H2 (human, UniProt O75144 19-258).
T11 construct: Sourced antigen; construct not described; also called Human B7-H2
T11 sequence (looked up): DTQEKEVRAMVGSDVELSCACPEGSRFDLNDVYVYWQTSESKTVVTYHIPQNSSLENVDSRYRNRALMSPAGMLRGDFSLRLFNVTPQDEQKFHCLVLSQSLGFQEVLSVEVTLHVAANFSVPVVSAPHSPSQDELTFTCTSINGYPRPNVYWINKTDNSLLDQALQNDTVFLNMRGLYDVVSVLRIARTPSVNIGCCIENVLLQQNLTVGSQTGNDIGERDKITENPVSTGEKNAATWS
Kind of test: ELISA, absorbance 450 nm, antigen human B7-H2 (ECD) F10H.

T7 sequence (Q9NZQ7 19-238 limits assumed): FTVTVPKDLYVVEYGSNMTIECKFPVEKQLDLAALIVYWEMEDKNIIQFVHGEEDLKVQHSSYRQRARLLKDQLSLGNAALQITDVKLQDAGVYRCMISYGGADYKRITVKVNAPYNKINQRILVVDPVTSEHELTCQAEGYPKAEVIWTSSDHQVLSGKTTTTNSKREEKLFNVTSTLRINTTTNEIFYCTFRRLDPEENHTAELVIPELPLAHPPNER

B1: ZY0EP0-C07 murine IgG1 (antibody, V domains shown)
VH: QVQLVESGGVLVKPGGSLRLSCAASGFTLSDYYMSWIRQAPGMGLEWVSYISSSGSTIYYTDSVKGRFTISRDSAKNSLYLQMNSLRAEDTAVYYCARDGVGFDYWGQGTLVTVSS
VL: EIVLTQSPGTLSLFPGERATLSCRASQSVSSSYLAWYQQKPGQSPRLLIYAASSRATGIPDRFSGSGSGTDFTLTISRLEPEDFAVYYCQQYGSSPLYTFGQGTKLEIK
notes: also called ZY0EPO-C07
For orientation: EC50 means the concentration needed to bring the measured effect to its halfway point. A higher EC50 goes with weaker potency. For B1, the binding result in the test with huHHLA2 is “no binding (tested: about 10 µg/ml (antigen))”; with huBTN2A1, “no binding”; with huBTNL3, “no binding”; with huBTN1A1, “no binding (tested: 10 µg/ml (antigen))”; in the test with huB7-H1 it was “no binding (tested: 10 µg/ml (antigen))”; with huBTN3A2, “no binding (tested: about 10 µg/ml (antigen))”. Also, the binding result in the test with huB7-H3 is given as “no binding”; in the test with huB7-H2, “no binding (tested: 10 µg/ml (antigen))”. In addition, the EC50 is 0.49 nM in [1], 0.95 nM in [2] and 1.28 nM in test [3]. The values for the Max in test [1], in test [2] and in test [3] were 1910, 1740 and 1250, respectively.

B2: ZY0EO5-E07 murine IgG1 (antibody, V domains shown)
VH: QVQLQESGPGLVKPSQTLSLTCTVSGGSISSGGYYWSWIRQHPGKGLEWIGNIYYSGSTYYNPSLKSRVTISVDTSKNQFSLKLSSVTAADTAVYYCAREKALASVIPSGYENYYVVDVWGQGTTVTVSS
VL: DIQLTQSPSFLSASVGGRVTITCWASQGIAGYLAWYQQKPGKAPKLLIYAASTLQSGVPSRFSGSGSGTEFTLTISSLQPEDFATYYCQHLNSYPLTFGGGTKVEIK
notes: also called ZY0E05-E07; E05-E07
With B2, the binding result is reported as “no binding (tested: about 10 µg/ml (antigen))” with huHHLA2; “no binding” in the test with huBTN2A1; “no binding” in the test with huBTNL3; “no binding (tested: 10 µg/ml (antigen))” with huBTN1A1; “no binding (tested: 10 µg/ml (antigen))” with huB7-H1; “no binding (tested: about 10 µg/ml (antigen))” with huBTN3A2. Moreover, the values for the binding result in the test with huB7-H3 and with huB7-H2 were “no binding” and “no binding (tested: 10 µg/ml (antigen))”, respectively. Moreover, the figures for the EC50 in test [1], in test [2] and in [3] were 0.73 nM, 0.68 nM and 0.71 nM, respectively. Further, the Max was 1700 in test [1], 2150 in test [2] and 1700 in [3].
